Test results published in FireProtDB (doi:10.1073/pnas.91.22.10325).

Conditions: Equus caballus, pH 1.8, Thermal, HCl 20 mM, reversible: yes

Cytochrome c wild type, P00004, sequence (P00004 whole entry): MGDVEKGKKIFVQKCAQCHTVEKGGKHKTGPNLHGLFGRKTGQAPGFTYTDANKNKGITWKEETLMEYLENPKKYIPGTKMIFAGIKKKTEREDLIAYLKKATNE

Substance: Cytochrome c wild type, P00004
- Tm (CD, NaClO4 10 mM): 25.8 °C
- heat capacity change of unfolding (CD, NaClO4 10 mM): 0.43 kcal/mol/K
- unfolding enthalpy (van 't Hoff) (CD, NaClO4 10 mM): 28.2 kcal/mol
- Tm (CD, NaClO4 20 mM): 37 °C
- heat capacity change of unfolding (CD, NaClO4 20 mM): 0.43 kcal/mol/K
- unfolding enthalpy (van 't Hoff) (CD, NaClO4 20 mM): 32.5 kcal/mol
- Tm (CD, NaClO4 50 mM): 47 °C
- heat capacity change of unfolding (CD, NaClO4 50 mM): 0.43 kcal/mol/K
- unfolding enthalpy (van 't Hoff) (CD, NaClO4 50 mM): 38 kcal/mol
- Tm (DSC, NaClO4 20 mM): 34.4 °C
- heat capacity change of unfolding (DSC, NaClO4 20 mM): 0.31 kcal/mol/K
- unfolding enthalpy (calorimetric) (DSC, NaClO4 20 mM): 32.3 kcal/mol
- unfolding enthalpy (van 't Hoff) (DSC, NaClO4 20 mM): 31.8 kcal/mol
- Tm (DSC, NaClO4 30 mM): 40 °C
- heat capacity change of unfolding (DSC, NaClO4 30 mM): 0.31 kcal/mol/K
- unfolding enthalpy (calorimetric) (DSC, NaClO4 30 mM): 31.4 kcal/mol
- unfolding enthalpy (van 't Hoff) (DSC, NaClO4 30 mM): 31.4 kcal/mol
- Tm (DSC, NaClO4 40 mM): 42.6 °C
- heat capacity change of unfolding (DSC, NaClO4 40 mM): 0.31 kcal/mol/K
- unfolding enthalpy (calorimetric) (DSC, NaClO4 40 mM): 34.9 kcal/mol
- unfolding enthalpy (van 't Hoff) (DSC, NaClO4 40 mM): 34.9 kcal/mol
- Tm (DSC, NaClO4 50 mM): 44.1 °C
- heat capacity change of unfolding (DSC, NaClO4 50 mM): 0.31 kcal/mol/K
- unfolding enthalpy (calorimetric) (DSC, NaClO4 50 mM): 33.7 kcal/mol
- unfolding enthalpy (van 't Hoff) (DSC, NaClO4 50 mM): 33.7 kcal/mol
